# Values of other authors as cited in US9173901B2, “Compositions and methods of using lamellar bodies for modifying linear biological macromolecules” (LAMELLAR THERAPEUTICS LIMITED, priority 2004, dated 2015).
# B1: rhDNAse: recombinant human DNAse, marketed for thinning CF secretions (protein, UniProt P24855 23-282, looked up)
# Deoxyribonuclease-1: LKIAAFNIQTFGETKMSNATLVSYIVQILSRYDIALVQEVRDSHLTAVGKLLDNLNQDAPDTYHYVVSEPLGRNSYKERYLFVYRPDQVSAVDSYYYDDGCEPCGNDTFNREPAIVRFFSRFTEVREFAIVPLHAAPGDAVAEIDALYDVYLDVQEKWGLEDVMLMGDFNAGCSYVRPSQWSSIRLWTSPTFQWLIPDSADTTATPTHCAYDRIVVAGMLLRGAVVPDSALPFNFQAAYGLSDQLAQAISDHYPVEVMLK
# Test system: CF patients
# Conditions: young patients with mild lung disease; six months course
molecule,measurement,value
B1,benefit in FEVI,3%
same,decrease in frequency of intravenous antibiotic courses,34%
